# Columns and labels:
# [1] = substrate: C[S+](CC[C@H](N)C(=O)O)C[C@H]1O[C@@H](n2cnc3c(N)ncnc32)[C@H](O)[C@@H]1O; experiment: purified protein; details: saturating ClNP 1.5 mM, 100 mM Tris pH 8.0, 37 °C, methyl donor
# [2] = substrate: C[S+](CC[C@H](N)c1nn[nH]n1)C[C@H]1O[C@@H](n2cnc3c(N)ncnc32)[C@H](O)[C@@H]1O; experiment: methyltransferase assay, HPLC / A410; type: biochemical, Streptomyces peucetius; details: saturating ClNP 1.5 mM, 100 mM Tris pH 8.0, 37 °C, methyl donor
protein,measurement,setting,value
DnrK (Streptomyces peucetius) (protein) MTAEPTVAARPQQIDALRTLIRLGSLHTPMVVRTAATLRLVDHILAGARTVKALAARTDTRPEALLRLIRHLVAIGLLEEDAPGEFVPTEVGELLADDHPAAQRAWHDLTQAVARADISFTRLPDAIRTGRPTYESIYGKPFYEDLAGRPDLRASFDSLLACDQDVAFDAPAAAYDWTNVRHVLDVGGGKGGFAAAIARRAPHVSATVLEMAGTVDTARSYLKDEGLSDRVDVVEGDFFEPLPRKADAIILSFVLLNWPDHDAVRILTRCAEALEPGGRILIHERDDLHENSFNEQFTELDLRMLVFLGGALRTREKWDGLAASAGLVVEEVRQLPSPTIPYDLSLLVLAPAATGA,Km,[1],138 ± 7 µM
same,kcat,[1],0.000283 s⁻¹
same,Km,[2],335 ± 40 µM
same,kcat,[2],0.000517 ± 1.67e-05 s⁻¹
